Laboratory results published in patent publication US20140221281A1 (Sanofi, published 2014).
Like-named read-outs stand apart in the source and are kept apart here. *1 amine or outer side, *2 acyl side, *3 side chain or, on linkers, in order; H or OH if unused. Where no end group is shown, it is not given here. Side-chain parts run from the residue outwards. [ ]: non-standard residue; d: D form. The star is where a group is joined. γGlu = O=C(O)[C@H](CCC(=O)[*:2])N[*:1]; Stearoyl = CCCCCCCCCCCCCCCCCC(=O)*; Palmitoyl = CCCCCCCCCCCCCCCC(=O)*; αMeOrn = C[C@](N)(CCCN)C(=O)O; αMeK = C[C@](N)(CCCCN)C(=O)O; Aib = CC(C)(N)C(=O)O

Tests used:
Test in all cases: cell-based or functional assay
[1] = target: T1, human GLP-1 receptor (human, UniProt P43220 24-463)
[2] = target: T2, human GIP receptor (human, UniProt P48546 22-466)
T2 sequence (looked up): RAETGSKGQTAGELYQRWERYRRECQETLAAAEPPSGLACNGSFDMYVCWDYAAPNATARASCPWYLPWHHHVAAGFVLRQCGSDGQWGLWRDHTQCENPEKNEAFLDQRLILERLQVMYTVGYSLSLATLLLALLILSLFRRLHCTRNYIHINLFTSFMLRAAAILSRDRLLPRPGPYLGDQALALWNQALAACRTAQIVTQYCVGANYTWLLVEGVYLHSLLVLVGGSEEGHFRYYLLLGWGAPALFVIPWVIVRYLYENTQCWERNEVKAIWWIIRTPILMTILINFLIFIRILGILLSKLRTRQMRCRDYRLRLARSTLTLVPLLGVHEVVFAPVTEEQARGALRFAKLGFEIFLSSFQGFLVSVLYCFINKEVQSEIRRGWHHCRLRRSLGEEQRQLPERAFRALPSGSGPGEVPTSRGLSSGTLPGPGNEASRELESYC

[3] = target: T1, human GLP-1 receptor; remark: listed apart in the source
[4] = target: human glucagon receptor (human, UniProt P47871 26-477)
human glucagon receptor, sequence (P47871 26-477): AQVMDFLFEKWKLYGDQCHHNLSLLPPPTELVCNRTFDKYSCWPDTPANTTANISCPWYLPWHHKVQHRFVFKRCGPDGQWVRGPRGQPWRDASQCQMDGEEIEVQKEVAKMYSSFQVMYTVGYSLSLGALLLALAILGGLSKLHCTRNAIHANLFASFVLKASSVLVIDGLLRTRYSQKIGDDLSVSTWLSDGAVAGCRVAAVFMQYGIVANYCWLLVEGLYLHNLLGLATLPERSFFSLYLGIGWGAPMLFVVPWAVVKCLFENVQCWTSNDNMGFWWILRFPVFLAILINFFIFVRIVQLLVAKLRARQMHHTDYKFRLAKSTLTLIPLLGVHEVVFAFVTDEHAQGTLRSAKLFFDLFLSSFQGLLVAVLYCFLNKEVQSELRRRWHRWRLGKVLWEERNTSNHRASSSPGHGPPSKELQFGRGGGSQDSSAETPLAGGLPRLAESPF

[5] = target: T2, human GIP receptor; remark: listed apart in the source
[6] = target: T1, human GLP-1 receptor; remark: listed apart in the source
Target sequence in this assay (P43220 24-463): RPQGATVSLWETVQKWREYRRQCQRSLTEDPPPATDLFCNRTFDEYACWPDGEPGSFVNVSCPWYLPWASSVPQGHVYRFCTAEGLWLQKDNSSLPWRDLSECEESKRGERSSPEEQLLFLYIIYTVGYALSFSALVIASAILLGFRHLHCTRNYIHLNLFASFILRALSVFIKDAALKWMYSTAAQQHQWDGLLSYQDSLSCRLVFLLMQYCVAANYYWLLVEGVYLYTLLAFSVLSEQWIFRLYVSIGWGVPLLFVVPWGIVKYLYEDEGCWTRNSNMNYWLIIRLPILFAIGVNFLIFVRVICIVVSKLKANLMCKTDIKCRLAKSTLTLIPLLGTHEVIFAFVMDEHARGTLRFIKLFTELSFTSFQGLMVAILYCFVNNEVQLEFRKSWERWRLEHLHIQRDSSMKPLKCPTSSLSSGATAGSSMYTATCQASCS

[7] = target: T2, human GIP receptor; remark: listed apart in the source

| Binder | EC50 hGLP-1 R [pM] (cAMP formation) [1] | EC50 hGIPR [pM] (cAMP formation) [2] | EC50 hGLP-1 R [pM] (cAMP formation) [3] | EC50 hGLUC R [pM] (cAMP formation) [4] | EC50 hGIP R [pM] (cAMP formation) [5] | EC50 hGLP-1 R [pM] (cAMP formation) [6] | EC50 hGIP R [pM] (cAMP formation) [7] |
| --- | --- | --- | --- | --- | --- | --- | --- |
| Y[Aib]EGTFTSDLSIQLEERAA[αMeK]EFIEWLKNTGPSSGAPPPS-NH2 (N-terminus assumed; SMILES CC[C@H](C)[C@H](NC(=O)[C@H](CO)NC(=O)[C@H](CC(C)C)NC(=O)[C@H](CC(=O)O)NC(=O)[C@H](CO)NC(=O)[C@@H](NC(=O)[C@H](Cc1ccccc1)NC(=O)[C@@H](NC(=O)CNC(=O)[C@H](CCC(=O)O)NC(=O)C(C)(C)NC(=O)[C@@H](N)Cc1ccc(O)cc1)[C@@H](C)O)[C@@H](C)O)C(=O)N[C@@H](CCC(N)=O)C(=O)N[C@@H](CC(C)C)C(=O)N[C@@H](CCC(=O)O)C(=O)N[C@@H](CCC(=O)O)C(=O)N[C@@H](CCCNC(=N)N)C(=O)N[C@@H](C)C(=O)N[C@@H](C)C(=O)N[C@@](C)(CCCCN)C(=O)N[C@@H](CCC(=O)O)C(=O)N[C@@H](Cc1ccccc1)C(=O)N[C@H](C(=O)N[C@@H](CCC(=O)O)C(=O)N[C@@H](Cc1c[nH]c2ccccc12)C(=O)N[C@@H](CC(C)C)C(=O)N[C@@H](CCCCN)C(=O)N[C@@H](CC(N)=O)C(=O)N[C@H](C(=O)NCC(=O)N1CCC[C@H]1C(=O)N[C@@H](CO)C(=O)N[C@@H](CO)C(=O)NCC(=O)N[C@@H](C)C(=O)N1CCC[C@H]1C(=O)N1CCC[C@H]1C(=O)N1CCC[C@H]1C(=O)N[C@@H](CO)C(N)=O)[C@@H](C)O)[C@@H](C)CC) [SEQ ID NO: 17] | 5.9 pM | 163 pM |  |  |  |  |  |
| Y[Aib]EGTFTSDLSIQK([γGlu-Palmitoyl])EERAA[αMeK]EFIEWLKAGGPSSGAPPPS-NH2 (N-terminus assumed; SMILES CCCCCCCCCCCCCCCC(=O)N[C@@H](CCC(=O)NCCCC[C@H](NC(=O)[C@H](CCC(N)=O)NC(=O)[C@@H](NC(=O)[C@H](CO)NC(=O)[C@H](CC(C)C)NC(=O)[C@H](CC(=O)O)NC(=O)[C@H](CO)NC(=O)[C@@H](NC(=O)[C@H](Cc1ccccc1)NC(=O)[C@@H](NC(=O)CNC(=O)[C@H](CCC(=O)O)NC(=O)C(C)(C)NC(=O)[C@@H](N)Cc1ccc(O)cc1)[C@@H](C)O)[C@@H](C)O)[C@@H](C)CC)C(=O)N[C@@H](CCC(=O)O)C(=O)N[C@@H](CCC(=O)O)C(=O)N[C@@H](CCCNC(=N)N)C(=O)N[C@@H](C)C(=O)N[C@@H](C)C(=O)N[C@@](C)(CCCCN)C(=O)N[C@@H](CCC(=O)O)C(=O)N[C@@H](Cc1ccccc1)C(=O)N[C@H](C(=O)N[C@@H](CCC(=O)O)C(=O)N[C@@H](Cc1c[nH]c2ccccc12)C(=O)N[C@@H](CC(C)C)C(=O)N[C@@H](CCCCN)C(=O)N[C@@H](C)C(=O)NCC(=O)NCC(=O)N1CCC[C@H]1C(=O)N[C@@H](CO)C(=O)N[C@@H](CO)C(=O)NCC(=O)N[C@@H](C)C(=O)N1CCC[C@H]1C(=O)N1CCC[C@H]1C(=O)N1CCC[C@H]1C(=O)N[C@@H](CO)C(N)=O)[C@@H](C)CC)C(=O)O) [SEQ ID NO: 16] |  |  | 4.1 pM | 19800 pM | 2.5 pM |  |  |
| YAEGTFTSDVSIYLEGQAAKEFIAWLVKGR-NH2 [Tyr(1)Ile(12)-GLP1] |  |  |  |  |  | 5 pM | 3660 pM |
| Y[Aib]EGTFTSDLSIQK([γGlu-Palmitoyl])EERAA[αMeK]EFIEWLKNTGPSSGAPPPS-NH2 (N-terminus assumed; SMILES CCCCCCCCCCCCCCCC(=O)N[C@@H](CCC(=O)NCCCC[C@H](NC(=O)[C@H](CCC(N)=O)NC(=O)[C@@H](NC(=O)[C@H](CO)NC(=O)[C@H](CC(C)C)NC(=O)[C@H](CC(=O)O)NC(=O)[C@H](CO)NC(=O)[C@@H](NC(=O)[C@H](Cc1ccccc1)NC(=O)[C@@H](NC(=O)CNC(=O)[C@H](CCC(=O)O)NC(=O)C(C)(C)NC(=O)[C@@H](N)Cc1ccc(O)cc1)[C@@H](C)O)[C@@H](C)O)[C@@H](C)CC)C(=O)N[C@@H](CCC(=O)O)C(=O)N[C@@H](CCC(=O)O)C(=O)N[C@@H](CCCNC(=N)N)C(=O)N[C@@H](C)C(=O)N[C@@H](C)C(=O)N[C@@](C)(CCCCN)C(=O)N[C@@H](CCC(=O)O)C(=O)N[C@@H](Cc1ccccc1)C(=O)N[C@H](C(=O)N[C@@H](CCC(=O)O)C(=O)N[C@@H](Cc1c[nH]c2ccccc12)C(=O)N[C@@H](CC(C)C)C(=O)N[C@@H](CCCCN)C(=O)N[C@@H](CC(N)=O)C(=O)N[C@H](C(=O)NCC(=O)N1CCC[C@H]1C(=O)N[C@@H](CO)C(=O)N[C@@H](CO)C(=O)NCC(=O)N[C@@H](C)C(=O)N1CCC[C@H]1C(=O)N1CCC[C@H]1C(=O)N1CCC[C@H]1C(=O)N[C@@H](CO)C(N)=O)[C@@H](C)O)[C@@H](C)CC)C(=O)O) [SEQ ID NO: 11] | 5.1 pM | 7 pM | 5.1 pM | 3160 pM | 7 pM |  |  |
| Y[Aib]QGTFTSDLSIQK([γGlu-Stearoyl])DEQRA[αMeOrn]EFIEWLKAGGPSSGAPPPS-NH2 (N-terminus assumed; SMILES CCCCCCCCCCCCCCCCCC(=O)N[C@@H](CCC(=O)NCCCC[C@H](NC(=O)[C@H](CCC(N)=O)NC(=O)[C@@H](NC(=O)[C@H](CO)NC(=O)[C@H](CC(C)C)NC(=O)[C@H](CC(=O)O)NC(=O)[C@H](CO)NC(=O)[C@@H](NC(=O)[C@H](Cc1ccccc1)NC(=O)[C@@H](NC(=O)CNC(=O)[C@H](CCC(N)=O)NC(=O)C(C)(C)NC(=O)[C@@H](N)Cc1ccc(O)cc1)[C@@H](C)O)[C@@H](C)O)[C@@H](C)CC)C(=O)N[C@@H](CC(=O)O)C(=O)N[C@@H](CCC(=O)O)C(=O)N[C@@H](CCC(N)=O)C(=O)N[C@@H](CCCNC(=N)N)C(=O)N[C@@H](C)C(=O)N[C@@](C)(CCCN)C(=O)N[C@@H](CCC(=O)O)C(=O)N[C@@H](Cc1ccccc1)C(=O)N[C@H](C(=O)N[C@@H](CCC(=O)O)C(=O)N[C@@H](Cc1c[nH]c2ccccc12)C(=O)N[C@@H](CC(C)C)C(=O)N[C@@H](CCCCN)C(=O)N[C@@H](C)C(=O)NCC(=O)NCC(=O)N1CCC[C@H]1C(=O)N[C@@H](CO)C(=O)N[C@@H](CO)C(=O)NCC(=O)N[C@@H](C)C(=O)N1CCC[C@H]1C(=O)N1CCC[C@H]1C(=O)N1CCC[C@H]1C(=O)N[C@@H](CO)C(N)=O)[C@@H](C)CC)C(=O)O) [SEQ ID NO: 15] |  |  | 16.1 pM | 4 pM | 8.9 pM |  |  |
